The source of these data is patent US20150203581A1 (Genentech, published 2015).

Where two headings read alike, the source gives them in different places.

Experiment [1] addresses T1, recombinant human integrin α5β1 (human, UniProt P08648 42-995; P05556 21-728).
T1 construct: also called human α5β1 integrin
Nature of the experiment: SPR (BIAcore), IgG captured on anti-human Fc chip, Human Integrin α5β1 (R&D) as analyte. Here is the method:
(§1) To determine binding kinetics and affinities of the antibodies described herein, Surface Plasmon Resonance (SRP) measurement with a BIAcore™-3000 instrument was used. Antibody was first captured by pre-immobilized rabbit anti-human Fc CM5 biosensor chip on the different flow cell to achieve approximately 150 RU (Response Units). For kinetics measurements, 2-fold serial dilutions of human integrin α5β1 (300 nM to 1.2 nM) were injected in PBT buffer (PBS with 0.05% Tween 20) at 25° C. with a flow rate of 30 μl/min. Association rates (kₒₙ) and dissociation rates (koff) were calculated using a simple one-to-one Langmuir binding model (BIAcore Evaluation Software version 3.2). The equilibrium dissociation constant (KD) was calculated as the ratio koff/kₒₙ.
(§2) To determine binding kinetics and affinities of chimeric 18C12, h18C12.v6.1, h18C12.v6.1.1, h18C12.v6.1.2, h18C12.v6.1.3, h18C12.v6.1.4, h18C12.v6.1.5 IgGs, Surface Plasmon Resonance (SRP) measurement with a BIAcore™-3000 instrument as described in Example 1 was used.

Experiment [2] deals with T1, recombinant human integrin α5β1. Kind of experiment: SPR (BIAcore), antibody as hIgG is the captured ligand, Human Integrin α5β1 (R&D) is the analyte. Here is the method:
as §1
In general terms: SPR reads the build-up and loss of mass on a sensor chip optically.

The target is the same in experiment [3]. Nature of the experiment: phage competition ELISA: Fab-displaying phage pre-incubated with serially diluted soluble human integrin α5β1, unbound phage captured on plate-coated human integrin α5β1, anti-M13-HRP detection. Here is the method:
MAXISORP™ microtiter plates were coated with recombinant human integrin β5β1 (R&D) at 5 μg/ml in PBS overnight and then blocked with PBST buffer (0.5% BSA and 0.05% Tween 20 in PBS) for an hour at room temperature. Phage from culture supernatants were incubated with serially diluted human integrin α5β1 in PBST buffer in a tissue-culture microtiter plate for an hour, after which 80 μl of the mixture was transferred to the target-coated wells for 15 minutes to capture unbound phage. The plate was washed with PBT buffer (0.05% Tween 20 in PBS), and HRP-conjugated anti-M13 (Amersham Pharmacia Biotech) was added (1:5000 in PBST buffer) for 40 minutes. The plate was washed with PBT buffer and developed by adding tetramethylbenzidine substrate (Kirkegaard and Perry Laboratories, Gaithersburg, Md.). The absorbance at 450 nm was plotted as a function of target concentration in solution to determine phage IC₅₀.

The target is the same in experiment [4]. Kind of experiment: BIAcore SPR, IgG captured by anti-human Fc, human integrin α5β1 as analyte. Here is the method: as §1, §2
For experiment [5] the target is unchanged. Nature of the experiment: SPR (BIAcore), antibody as hIgG is the captured ligand, Human Integrin α5β1 (R&D) is the analyte. Here is the method: as §1, §2
The source holds these as a separate data set.

The target is the same in experiment [6]. Kind of experiment: cell-based or functional assay.
In experiment [7] the target is T2, recombinant α5β1 extracellular domain.
T2 construct: extracellular domain; also called α5β1 (R & D Systems)
Nature of the experiment: blocking ELISA: antibody titrated and premixed with recombinant α5β1 (R&D), then added to fibronectin-coated wells; bound α5β1 detected with anti-β1-biotin / streptavidin-HRP (OD450); the blocked ligand is fibronectin. Here is the method:
anti-β5β1 antibody (30 μg/mL) was serially diluted 1:3 11 times. 50 μl of the serially diluted anti-β5β1 antibody was added to 0.65 mL micro tubes and premixed (1:1) with 50 μL of 200 ng/mL […] (R & D Systems) in ELISA buffer (150 mM NaCl, 10 mM Tris, pH 7.5, 5 mg/mL BSA, 1 mM MnCl₂) for 60 minutes at room temperature with gentle agitation. 25 μL of the premixed α5β1 and anti-β5β1 antibody was added to the Fibronectin coated wells and the plates were incubated at room temperature for 60 minutes with gentle agitation. Plates were washed 6 times with PBT buffer, 100 ng/mL anti-β1-biotin in ELISA buffer was added to each well and the plates were incubated for 60 minutes at room temperature with gentle agitation. Plates were washed 6 times with 80 μL PBT buffer, 25 μL of Streptadvidin-HRP (1:50,000 in ELISA buffer, GE Healthcare) was added to each well, and the plates were incubated for 60 minutes at room temperature with gentle agitation. Plates were washed 6 times with 80 μL PBT buffer, 25 μl of TMB substrate (Kirkgaard and Perry Laboratories) was added to each well, plates were incubated about 6 minutes at room temperature, and the reaction was stopped with 25 μL of 1 M Phosphoric Acid. Absorbance was read at 450 nm and IC₅₀ values were analyzed as described in section B above. […]
A general note: ELISA stands for enzyme-linked immunosorbent assay.

The target in experiment [8] is T1, recombinant human integrin α5β1. Kind of experiment: cell-based or functional assay. The source holds these as a separate data set.

T1 sequence (P08648 42-995 limits assumed, chain 1 of 2): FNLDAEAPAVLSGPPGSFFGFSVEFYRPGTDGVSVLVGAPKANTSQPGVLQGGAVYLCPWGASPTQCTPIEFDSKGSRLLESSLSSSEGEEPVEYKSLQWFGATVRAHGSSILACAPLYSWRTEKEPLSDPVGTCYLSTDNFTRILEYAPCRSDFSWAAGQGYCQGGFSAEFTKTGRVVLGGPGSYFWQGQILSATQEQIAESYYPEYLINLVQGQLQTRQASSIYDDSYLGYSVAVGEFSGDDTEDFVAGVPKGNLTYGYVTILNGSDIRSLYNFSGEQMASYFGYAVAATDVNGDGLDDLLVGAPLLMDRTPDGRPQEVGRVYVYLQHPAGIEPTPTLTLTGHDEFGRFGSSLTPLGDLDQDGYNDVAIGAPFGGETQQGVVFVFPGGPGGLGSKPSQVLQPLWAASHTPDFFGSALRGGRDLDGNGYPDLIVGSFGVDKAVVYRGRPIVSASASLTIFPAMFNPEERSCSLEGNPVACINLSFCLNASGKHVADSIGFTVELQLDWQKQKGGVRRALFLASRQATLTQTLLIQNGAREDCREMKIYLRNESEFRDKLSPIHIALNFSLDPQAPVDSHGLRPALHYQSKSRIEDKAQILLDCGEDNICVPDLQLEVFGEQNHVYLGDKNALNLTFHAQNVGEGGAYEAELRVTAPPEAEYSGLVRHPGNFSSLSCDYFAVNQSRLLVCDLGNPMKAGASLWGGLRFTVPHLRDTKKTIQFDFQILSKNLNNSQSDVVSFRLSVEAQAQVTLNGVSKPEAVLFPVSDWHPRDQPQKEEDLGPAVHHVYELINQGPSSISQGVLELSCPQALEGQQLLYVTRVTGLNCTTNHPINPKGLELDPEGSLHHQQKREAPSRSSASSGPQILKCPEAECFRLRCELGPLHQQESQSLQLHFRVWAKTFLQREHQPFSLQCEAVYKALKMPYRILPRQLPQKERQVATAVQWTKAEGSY
T1 sequence (P05556 21-728 limits assumed, chain 2 of 2): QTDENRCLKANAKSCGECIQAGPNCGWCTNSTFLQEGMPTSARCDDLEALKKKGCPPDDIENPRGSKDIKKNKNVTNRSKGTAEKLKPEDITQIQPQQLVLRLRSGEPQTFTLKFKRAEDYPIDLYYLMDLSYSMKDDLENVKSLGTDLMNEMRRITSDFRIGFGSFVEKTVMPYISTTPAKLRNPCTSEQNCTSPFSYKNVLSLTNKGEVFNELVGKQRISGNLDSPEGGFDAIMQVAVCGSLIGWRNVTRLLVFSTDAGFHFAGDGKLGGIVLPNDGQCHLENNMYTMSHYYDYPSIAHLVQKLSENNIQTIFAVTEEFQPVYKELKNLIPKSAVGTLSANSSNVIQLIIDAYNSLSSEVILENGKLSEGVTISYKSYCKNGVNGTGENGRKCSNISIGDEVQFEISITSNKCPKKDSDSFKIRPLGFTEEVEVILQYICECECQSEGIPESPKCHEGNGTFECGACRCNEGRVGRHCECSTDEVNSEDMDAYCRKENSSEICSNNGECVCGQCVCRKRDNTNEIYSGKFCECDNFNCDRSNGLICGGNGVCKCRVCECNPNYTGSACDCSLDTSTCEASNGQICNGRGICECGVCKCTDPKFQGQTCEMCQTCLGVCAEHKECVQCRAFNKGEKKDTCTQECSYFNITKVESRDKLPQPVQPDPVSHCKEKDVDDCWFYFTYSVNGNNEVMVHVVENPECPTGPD
T2 sequence (P08648 42-995, chain 1 of 2): as the sequence (P08648 42-995 limits assumed, chain 1 of 2) above
T2 sequence (P05556 21-728, chain 2 of 2, further chain): as the sequence (P05556 21-728 limits assumed, chain 2 of 2) above

B1: h18C12.v6.1.2 (antibody, V domains shown)
VH: EVQLVESGGGLVQPGGSLRLSCAASGFTFSARWIYWVRQAPGKGLEWVGGIKTKPAIYATEYADSVKGRFTISRDDSKNTLYLQMNSLRAEDTAVYYCARLTGMKYFDYWGQGT
VL: SSELTQDPAVSVALGQTVRITCTLSSQHSTYTIGWYQQKPGQAPVYLMYLNSDGSHNKGSGIPDRFSGSSSGATRSLTITNAQAEDEADYYCAAYYAYGYVFGGGT
notes: copies: 2 + 2
Turning to B1, in experiment [1], the Kd is 13.5 nM, the koff was 0.000643 s⁻¹ and the kon amounted to 48000 M⁻¹ s⁻¹.

B2: h18C12.v3 (Fab, V domains shown)
VH: EVQLVESGGGLVQPGGSLRLSCAASGFTFSNRWIYWVRQAPGKGLEWVGGIKTKPNIYATEYADSVKGRFTISRDDSKNTLYLQMNSLRAEDTAVYYCARLTGMRYFDYWGQGT
VL: EPVLTQSPSASASLGASVKLTCTLSSQHSTYTIGWYQQQPGKAPRYLMYLNSDGSHNKGDGIPDRFSGSSSGADRYLTISNLQSEDEADYYCGSSYSSGYVFGGGT
notes: also called Humanized 18C12.v3; h18C12.v3 parental clone
Regarding B2, in experiment [2], the Kd worked out at 11.5 nM, the koff stood at 0.000807 s⁻¹ and the kon came to 71000 M⁻¹ s⁻¹. Further, the IC50 in experiment [3] was 0.72 nM.

B3: h18C12.v6.1Lam3 (antibody, V domains shown)
VH: EVQLVESGGGLVQPGGSLRLSCAASGFTFSARWIYWVRQAPGKGLEWVGGIKTKPAIYATEYADSVKGRFTISRDDSKNTLYLQMNSLRAEDTAVYYCARLTGMKYFDYWGQGT
VL: SSELTQDPAVSVALGQTVRITCTLSSQHSTYTIGWYQQKPGQAPVYLMYLNSSGSHNKGSGIPDRFSGSSSGATRSLTITNAQAEDEADYYCAAYYAYGYVFGGGT
notes: CDRs come from h18C12.v6 with changes in CDR-L2 (D50cS, D56S), CDR-H1 (N31A) and CDR-H2 (N53A); The human λIII framework carries L46Y, V47L, I48M, N69A, A71R and G77N
For the molecule B3, the “fold higher binding affinity than hamster 18C12” value in experiment [4] is roughly 2 fold. For the same molecule, in experiment [5], the Kd was found to be 4 nM, the koff was determined as 0.000386 s⁻¹ and the kon was 97000 M⁻¹ s⁻¹. Also, in experiment [6], the “IC50 for inhibition of adhesion of U937 cells to plate-coated fibronectin (Cell-Titer Glo luminescence); the target is α5β1 on the U937 cells” value (shortened to “IC50 for inhibition”) came out at 0.207 nM.

B4: h18C12.v6.1.5 (antibody, V domains shown)
VH: EVQLVESGGGLVQPGGSLRLSCAASGFTFSARWIYWVRQAPGKGLEWVGGIKTKPAIYATEYADSVKGRFTISRDDSKNTLYLQMNSLRAEDTAVYYCARLTGMKYFDYWGQGT
VL: SSELTQDPAVSVALGQTVRITCTLSSQHSTYTIGWYQQKPGQAPVYLMYLNSDSSHNKGSGIPDRFSGSSSGATRSLTITNAQAEDEADYYCAAYYAYGYVFGGGT
notes: Derived from h18C12.v6.1 by removing Asn in CDR-L2 positions 50a-50d; also called anti-α5β1 antibody h18C12.v6.1.5
As to B4, in experiment [1], the Kd was determined as 15.5 nM, the koff worked out at 0.000659 s⁻¹ and the kon turned out to be 43000 M⁻¹ s⁻¹. For the same molecule, the IC50 in experiment [7] was found to be 0.077 nM. The “IC50 for inhibition” value in experiment [8] was 0.126 nM.

B5: h18C12.v6 (Fab, V domains shown)
VH: EVQLVESGGGLVQPGGSLRLSCAASGFTFSNRWIYWVRQAPGKGLEWVGGIKTKPNIYATEYADSVKGRFTISRDDSKNTLYLQMNSLRAEDTAVYYCARLTGMKYFDYWGQGT
VL: EPVLTQSPSASASLGASVKLTCTLSSQHSTYTIGWYQQQPGKAPRYLMYLNSDGSHNKGDGIPDRFSGSSSGADRYLTISNLQSEDEADYYCAAYYAYGYVFGGGT
As to B5, in experiment [2], the Kd is 4.8 nM, the koff was 0.00075 s⁻¹ and the kon worked out at 174000 M⁻¹ s⁻¹. In experiment [3], the IC50 amounted to 0.41 nM.

B6: chimeric 18C12 (antibody, V domains shown)
VH: EVHLVESGGDLVQPGSSLKLSCAASGFTFSNRWIYWVRQAPGKGLEWVGGIKTKPNIYATEYADSVKGRFTISRDDSKNSLYLQMNTLRVDDTAIYYCTSLTGMRYFDYWGQGT
VL: QPVLTQSPSASASLGNSVKITCTLSSQHSTYTIGWYQQHPDKAPKYVMYLNSDGSHNKGDGIPDRFSGSSSGAHRYLSISNIQPEDEADYFCGSSYSSGYVFGSGT
notes: also called chimeric 18C12 IgG
For the molecule B6, in experiment [5], the Kd worked out at 7.68 nM, the koff stood at 0.000922 s⁻¹ and the kon is 120000 M⁻¹ s⁻¹. Also, the “IC50 for inhibition” value in experiment [6] turned out to be 0.159 nM.

Broadly, the Kd is the free concentration of one partner at which half of the binding sites on the other are occupied at equilibrium, for simple one-to-one binding. One may read the koff as a measure of how fast the partners let go of each other. One may read the kon as a measure of how fast the partners come together. Usually IC50 stands for the concentration needed to halve the response being measured.
